From patent US20230040928A1 (INSERM INSTITUT NATIONAL DE LA SANTE ET DE LA RECHERCHE …, published 2023)

Columns and labels:
[1] = biological target: T1, human HER4-Fc (human, UniProt Q15303 26-651); test: ELISA, human HER4-Fc coated, concentration giving 50% absorbance
T1 construct: Bought protein; also called HER4-Fc antigen; not shown: Fc part of the bought fusion protein, not described
T1 sequence: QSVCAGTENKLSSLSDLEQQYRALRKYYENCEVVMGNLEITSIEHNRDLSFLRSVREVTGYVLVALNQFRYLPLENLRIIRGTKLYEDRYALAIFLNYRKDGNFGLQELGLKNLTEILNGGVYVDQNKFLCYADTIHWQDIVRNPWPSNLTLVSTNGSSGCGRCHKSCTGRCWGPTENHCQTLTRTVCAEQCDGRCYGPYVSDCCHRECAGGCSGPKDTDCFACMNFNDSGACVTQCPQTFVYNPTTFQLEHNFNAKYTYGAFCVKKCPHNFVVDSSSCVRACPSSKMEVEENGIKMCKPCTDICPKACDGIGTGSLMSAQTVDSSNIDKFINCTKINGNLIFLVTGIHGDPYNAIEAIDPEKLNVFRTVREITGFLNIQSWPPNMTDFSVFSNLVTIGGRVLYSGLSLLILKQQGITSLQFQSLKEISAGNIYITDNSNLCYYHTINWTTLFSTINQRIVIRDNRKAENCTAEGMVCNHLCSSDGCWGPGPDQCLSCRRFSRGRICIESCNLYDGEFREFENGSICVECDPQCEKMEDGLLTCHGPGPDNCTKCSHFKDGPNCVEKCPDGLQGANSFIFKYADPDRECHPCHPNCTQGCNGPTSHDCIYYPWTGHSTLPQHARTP
Description: (§1) Ninety six-well enzyme immunoassay plates (Nunc Maxisorp) were coated overnight at 4° C. with HER4-Fc antigen at a concentration of 250 ng/ml in PBS pH 7.4. After four washes in PBS, containing 0.1% Tween 20 (PBS-T), plates were saturated with a 2% solution of bovine serum albumin (BSA) in PBS-T buffer for 2 h at 37° C. Two-fold or ten-fold serial dilutions of purified HER4-specific mAbs were added after four washes in PBS-T and plates were incubated at 37° C. for 2 h. Following four washes in PBS-T, 100 μl of a peroxidase-conjugated goat anti-human F(ab′)2 antibody (Jackson Immunoresearch) were added to each well. The conjugate was used at a 1:5000 dilution in PBS-T-2% BSA. The plates were incubated at 37° C. for 1 h and then washed three times in PBS-T and once in PBS. Finally a Tetramethylbenzidine solution (Sigma) was added for 30 min at ambient temperature in the dark. The reaction was stopped by adding 50 μl/well 1M […] and the absorbance was measured at 450 nm. […] HER4-specific antibodies D5 and C6, giving 50%-absorbance at concentration of 20 ng/ml and 100 ng/ml respectively, on human HER4-Fc, are more efficient for binding than F4 and H2, which gave a 50%-absorbance at concentration around 1-5 μg/ml (FIG. 1).

[2] = biological target: T2, HER2 receptor (UniProt P04626 23-652, limits assumed); test: ELISA
T2 construct: also called Neu; ErbB2

[3] = biological target: T3, HER3 receptor (UniProt P21860 20-643, limits assumed); test: ELISA
T3 construct: also called ErbB3
T3 sequence (P21860 20-643 limits assumed): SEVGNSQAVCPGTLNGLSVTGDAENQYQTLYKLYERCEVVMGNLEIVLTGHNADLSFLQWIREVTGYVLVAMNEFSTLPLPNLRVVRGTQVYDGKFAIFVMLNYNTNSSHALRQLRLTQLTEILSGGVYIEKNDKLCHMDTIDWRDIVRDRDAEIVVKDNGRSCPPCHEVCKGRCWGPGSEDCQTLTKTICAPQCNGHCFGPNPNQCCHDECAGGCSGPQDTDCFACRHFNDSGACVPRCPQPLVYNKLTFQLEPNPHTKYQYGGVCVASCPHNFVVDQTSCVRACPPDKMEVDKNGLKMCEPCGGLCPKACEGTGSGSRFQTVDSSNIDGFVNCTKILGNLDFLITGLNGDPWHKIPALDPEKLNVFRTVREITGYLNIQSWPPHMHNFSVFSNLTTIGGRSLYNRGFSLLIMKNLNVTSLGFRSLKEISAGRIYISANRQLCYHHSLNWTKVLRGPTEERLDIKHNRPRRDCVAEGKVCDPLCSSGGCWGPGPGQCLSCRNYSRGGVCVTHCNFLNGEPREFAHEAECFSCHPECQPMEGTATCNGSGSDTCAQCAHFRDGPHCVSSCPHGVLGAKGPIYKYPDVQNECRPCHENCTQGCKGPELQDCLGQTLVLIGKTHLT

[4] = biological target: T4, EGFR receptor (UniProt P00533 25-645, limits assumed); test: ELISA
T4 construct: also called Her1; ErbB1

[5] = biological target: T1, human HER4-Fc; test: ELISA, HER4-Fc coated at 250 ng/ml, IgG in solution
Description: as §1

| Binder | EC50 [1] [mg/L] | binding result [2] | binding result [3] | binding result [4] | binding result [5] |
| --- | --- | --- | --- | --- | --- |
| C6 mAb (antibody, V domains shown, also called antibody C6; Ab C6) VH: EVQLVESGGSLVKPGGSLRLSCAASGFTFSNYYMNWVRQAPGKGLEWISSISGSSRYIDYADFVKGRFTISRDNATNSLYLQMNSLRAEDTAVYYCVRSSSDYFGGGMDVWGRGTLVTVSS VL: QSVLTQPASVSGSPGQSITISCAGTSSDVGGSYYVSWYQQHPGKAPKLMIYYDSYRPSGVSNRFSGSKSGNTASLTISGLQAEDEADYYCSSSTYNSTRVFGGGTKLAVLG | 0.1 | no binding | no binding | no binding | – |
| F4 mAb (antibody, V domains shown, also called antibody F4) VH: EVQLVESGGSLVKPGGSLRLSCAASGFTFSNNDMNWVRQAPGKGLEWISSISGSSRYINYADFVKGRFTISRDNATNSLYLQMNSLRAEDTAVYYCVRSSDDYFGGGMDVWGRGTLVTVSS VL: QSVLTQPASVSGSPGQSITISCAGTSSDVGGYSGVSWYQQHPGKAPKLMIYNDSYRPSGVSNRFSGSKSGNTASLTISGLQAEDEADYYCSSYTNNSTRVFGGGTKLAVLG | – | no binding | no binding | no binding | binds |
| H2 mAb (antibody, V domains shown, also called antibody H2) VH: EVQLVESGGSLVKPGGSLRLSCAASGFTFSNNDMNWVRQAPGKGLEWISDINGSSRYIYYADFVKGRFTISRDNATNSLYLQMNSLRAEDTAVYYCVRSSDDYFGGGMDVWGRGTLVTVSS VL: QSVLTQPASVSGSPGQSITISCAGTSSDVGGYYSVSWYQQHPGKAPKLMIYNDSYRPSGVSNRFSGSKSGNTASLTISGLQAEDEADYYCSSSTYYSTRVFGGGTKLAVLG | – | no binding | no binding | no binding | binds |
| D5 mAb (antibody, V domains shown, also called antibody D5; anti-HER4 antibody D5) VH: EVQLVESGGSLVKPGGSLRLSCAASGFTFSNYYMNWVRQAPGKGLEWISSIDGSSRYIDYADFVKGRFTISRDNATNSLYLQMNSLRAEDTAVYYCVRSSSDYFGGGMDVWGRGTLVTVSS VL: QSVLTQPASVSGSPGQSITISCAGTSSDVGGSSYVSWYQQHPGKAPKLMIYYDSYRPSGVSNRFSGSKSGNTASLTISGLQAEDEADYYCSSNTYYSTRVFGGGTKLAVLG | 0.02 | no binding | no binding | no binding | – |
